{"source": "the supplement of paper PMC9170038", "test_system": "MS2 coat protein", "test": "apparent KD of MS2 coat protein; designed switch direction (-1 OFF switch, 1 ON switch): -1; higher = weaker reporter binding", "outline": "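Designed RNA switches with common flanks were transcribed on Illumina chips by stalled E. coli RNA polymerase and titrated with SNAP-549-labelled MS2 coat protein, from 0.7 or 1.5 nM doubling to 3 µM, in Tris-HCl pH 7.5 buffer with KCl, MgCl2, BSA, DTT, tRNA and Tween-20. Steps lasted 0.8–1.5 h (lowest) to 10–20 min (highest). Titrations ran without input, with 200 uM small-molecule ligand, or with an oligonucleotide input. Normalised cluster fluorescence was curve-fitted, and apparent KD is the per-design median over clusters.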", "key": {"[1]": {"details": "input ligand: microRNA oligo, concentration not stated"}, "[2]": {"details": "Eterna round: R95, input ligand: FMN 200 uM"}, "[3]": {"details": "Eterna round: R95, input ligand: microRNA oligo, concentration not stated"}, "[4]": {"details": "Eterna round: R95, input ligand: none"}}}
{"sequence": "GGCUGCAAUGUAGGAUAUCUGCACGUUUAGUGCAGAGAAGGACAUGAGGAUCACCCAUGUAUAGUAGCUUCGGCUACAGCAGCC [ENG1-D2] (Eterna round: R96, puzzle: Exclusion NG 1)", "values": [{"measurement": "apparent KD of MS2 coat protein", "setting": "input ligand: FMN 200 uM", "value": 18.4, "unit": "nM"}, {"measurement": "apparent KD of MS2 coat protein", "setting": "[1]", "value": 11.4, "unit": "nM"}, {"measurement": "apparent KD of MS2 coat protein", "setting": "input ligand: none", "value": 17.2, "unit": "nM"}]}
{"sequence": "AUAGAGUCAGGAUAUACAGGUGGAGGAAAGCAGCAUAAGGAGUAGAAGGGACAUGAGGAUCACCCAUGUAAGUG [JR_Exclu4_Sub058] (puzzle: Exclusion 4)", "values": [{"measurement": "apparent KD of MS2 coat protein", "setting": "[2]", "value": 47.4, "unit": "nM"}, {"measurement": "apparent KD of MS2 coat protein", "setting": "[3]", "value": 62.3, "unit": "nM"}, {"measurement": "apparent KD of MS2 coat protein", "setting": "[4]", "value": 60.2, "unit": "nM"}]}
{"sequence": "AGAGAAUACUCAGGAUAUCUGAAUAGAAAGAGAAGAGAAGGGAGACAUGAGGAUCACCCAUGUGAAGUCUUGAGACUACAUGGU [Prohibition 27 - Jieux - Exclusion NG 1] (Eterna round: R96, puzzle: Exclusion NG 1)", "values": [{"measurement": "apparent KD of MS2 coat protein", "setting": "[1]", "value": 225, "unit": "nM"}]}
{"sequence": "GUAUGUUAUGAGGAUAUCGGUGAACAUACACAUCGAGAAGGCAUGACAUGAGGAUCACCCAUGUCAAGGAUGAA [Exclusion 6 - B - 18:a] (puzzle: Exclusion 6)", "values": [{"measurement": "apparent KD of MS2 coat protein", "setting": "[2]", "value": 34.1, "unit": "nM"}, {"measurement": "apparent KD of MS2 coat protein", "setting": "[3]", "value": 16.9, "unit": "nM"}, {"measurement": "apparent KD of MS2 coat protein", "setting": "[4]", "value": 18.3, "unit": "nM"}]}
{"sequence": "AAUUAACAUGUAGGAUAUCUGCACGUGUAGUGCAGAGAAGGACAUGAGGAUCACCCAUGUAUAGCGACUUCGGUCGCAAUAAUU [ENG1/2-B3] (Eterna round: R96, puzzle: Exclusion NG 1)", "values": [{"measurement": "apparent KD of MS2 coat protein", "setting": "input ligand: FMN 200 uM", "value": 313, "unit": "nM"}, {"measurement": "apparent KD of MS2 coat protein", "setting": "[1]", "value": 119, "unit": "nM"}, {"measurement": "apparent KD of MS2 coat protein", "setting": "input ligand: none", "value": 140, "unit": "nM"}]}
{"sequence": "AGUAACUAUCACGAAAGUGAUAGUUACACAAGCAGUGAAACAUGAGGAUCACCCAUGUCCUCAUUAGCUCGUCUUAU [Sensor 3 - 32] (puzzle: Sensor v3, turn-off variant 2)", "values": [{"measurement": "apparent KD of MS2 coat protein", "setting": "[2]", "value": 117, "unit": "nM"}, {"measurement": "apparent KD of MS2 coat protein", "setting": "[3]", "value": 729, "unit": "nM"}, {"measurement": "apparent KD of MS2 coat protein", "setting": "[4]", "value": 164, "unit": "nM"}]}
{"sequence": "UUUUAACAUGAGGAUCACCCAUGUGAGGAUAUCGAAAUUUAUAUUAAUAUUAUUAAUUCGAGAAGGCACAUUUU [JMF 37] (puzzle: Exclusion 1)", "values": [{"measurement": "apparent KD of MS2 coat protein", "setting": "[3]", "value": 126, "unit": "nM"}]}
{"sequence": "GCGUAGUAUGUAGGAUAUCGGUCAGUUUCUGAUCGAGAAGGACAUGAGGAUCACCCAUGUAAAACGACCGCUUUGUGGUUACGC [JL ENG1 3.58] (Eterna round: R96, puzzle: Exclusion NG 1)", "values": [{"measurement": "apparent KD of MS2 coat protein", "setting": "input ligand: FMN 200 uM", "value": 42.7, "unit": "nM"}, {"measurement": "apparent KD of MS2 coat protein", "setting": "[1]", "value": 15.9, "unit": "nM"}, {"measurement": "apparent KD of MS2 coat protein", "setting": "input ligand: none", "value": 19.2, "unit": "nM"}]}
{"sequence": "UUUAGUUCAGGAUAUGUAGAUUUUAACAUGAGGAUCACCCAUGUAGAUCCUGAUCCUGCUACAGAAGGGAAAAUUU [Mat - Exclusion 5 - Eli Mod - D9] (Eterna round: R97, puzzle: Exclusion 5)", "values": [{"measurement": "apparent KD of MS2 coat protein", "setting": "input ligand: FMN 200 uM", "value": 24.4, "unit": "nM"}, {"measurement": "apparent KD of MS2 coat protein", "setting": "input ligand: none", "value": 25.6, "unit": "nM"}]}
{"sequence": "CGAGUGUAAGGAUAUUCGGCACUAGGGACCACCCUAGUGUAGAAGAAGGUACAUGAGGAUCACCCAUGUGGUUA [Bereisonma] (puzzle: Exclusion 4)", "values": [{"measurement": "apparent KD of MS2 coat protein", "setting": "[3]", "value": 273, "unit": "nM"}]}
{"sequence": "CAUACAGUAGUUAGGAUAUUGCAACGUACACGGAACGAGAAGGGACAUGAGGAUCACCCAUGUAGAUUGUAAAG [EX-4 Malc #8] (puzzle: Brourd's mod of Exclusion 4)", "values": [{"measurement": "apparent KD of MS2 coat protein", "setting": "[3]", "value": 20, "unit": "nM"}]}
{"sequence": "CCAUCGAGUGUGAGGAUAUGCUGGUCCUUGGAUCAGCAGAAGGCACAUGAGGAUCACCCAUGUGAAUACGGUGG [JL bmx4 3.20] (puzzle: Brourd's mod of Exclusion 4)", "values": [{"measurement": "apparent KD of MS2 coat protein", "setting": "[3]", "value": 28.3, "unit": "nM"}]}
{"sequence": "UUUAAUUUUUUUUUUUUACAAGCUUUUUGCUCGUCUUAUACAUGAGGAUCACCCAUGUGAGUGGAAGGUAAAUUAUC [JMF 69] (puzzle: Sensor v3, turn-off variant 2)", "values": [{"measurement": "apparent KD of MS2 coat protein", "setting": "[2]", "value": 12.6, "unit": "nM"}, {"measurement": "apparent KD of MS2 coat protein", "setting": "[3]", "value": 18, "unit": "nM"}, {"measurement": "apparent KD of MS2 coat protein", "setting": "[4]", "value": 11.8, "unit": "nM"}]}
{"sequence": "GAUUAUGCGAGCUUUAGGGACAUGAGGAUCACCCAUGUUCGUCUUAUUAAUCUGGGUACACUGGCAUACCUAAAUCU [JMF 7] (puzzle: Sensor v3, turn-off variant 1)", "values": [{"measurement": "apparent KD of MS2 coat protein", "setting": "[2]", "value": 26.7, "unit": "nM"}, {"measurement": "apparent KD of MS2 coat protein", "setting": "[3]", "value": 37.7, "unit": "nM"}, {"measurement": "apparent KD of MS2 coat protein", "setting": "[4]", "value": 28.1, "unit": "nM"}]}
{"sequence": "GGUCUACAUGAGGAUCACCCAUGUUAGGAUAUGCUUCGUCGGGCUAUACACGGCGGAUGUAGAAGGGACCUGGU [Eternabot (L1) Solution 83] (Eterna round: R97, puzzle: Exclusion 1)", "values": [{"measurement": "apparent KD of MS2 coat protein", "setting": "input ligand: FMN 200 uM", "value": 16.7, "unit": "nM"}, {"measurement": "apparent KD of MS2 coat protein", "setting": "input ligand: none", "value": 20.2, "unit": "nM"}]}
{"sequence": "CUGAGGUAGCGGUCCUAUGACAUGAGGAUCACCCAUGUACCUUGCUACAAGCUUUUUGCUCGUCUUAUGAUUCUCGG [JL Atriat mod 8] (puzzle: Sensor v3, turn-off variant 1)", "values": [{"measurement": "apparent KD of MS2 coat protein", "setting": "[2]", "value": 58.1, "unit": "nM"}, {"measurement": "apparent KD of MS2 coat protein", "setting": "[3]", "value": 123, "unit": "nM"}, {"measurement": "apparent KD of MS2 coat protein", "setting": "[4]", "value": 70.2, "unit": "nM"}]}
{"sequence": "CAAUUCCGAGGAUAUACAUGAGGAUCACCCAUGUCGGGCCUCAGCGUUUAGCGCCUCAGUAGAAGGCGGGUUUC [JL Riri mod 3] (puzzle: Exclusion 3)", "values": [{"measurement": "apparent KD of MS2 coat protein", "setting": "[3]", "value": 24.4, "unit": "nM"}]}
{"sequence": "GUUGUUUAUGUAGGAUAUGCCUGGCGUGCCUUUGCAGAAGGACAUGAGGAUCACCCAUGUAUUGCGGUCUGCGUUCAGAUCGCC [salish99_ExNG1_r4_041] (Eterna round: R96, puzzle: Exclusion NG 1)", "values": [{"measurement": "apparent KD of MS2 coat protein", "setting": "input ligand: FMN 200 uM", "value": 33.1, "unit": "nM"}, {"measurement": "apparent KD of MS2 coat protein", "setting": "[1]", "value": 19.1, "unit": "nM"}, {"measurement": "apparent KD of MS2 coat protein", "setting": "input ligand: none", "value": 25.2, "unit": "nM"}]}
{"sequence": "GGAUCGAGAGUGAGGAUAUGCUGGUCCUUGGAUCAGCAGAAGGCACAUGAGGAUCACCCAUGUGAUUUCGAUCC [Mat - Exclusion 4 - Eli Mod - D40] (Eterna round: R97, puzzle: Brourd's mod of Exclusion 4)", "values": [{"measurement": "apparent KD of MS2 coat protein", "setting": "input ligand: FMN 200 uM", "value": 34.6, "unit": "nM"}, {"measurement": "apparent KD of MS2 coat protein", "setting": "input ligand: none", "value": 18.1, "unit": "nM"}]}
{"sequence": "UGUACGAUGCGUGCUGACAUGCGUCGUGCAGCAGGUGGAACAUGAGGAUCACCCAUGUCCUCAUUUGCUCGUCUUAU [Mat - Sensor v3 - Turn-off var 2 - D21] (Eterna round: R96, puzzle: Sensor v3, turn-off variant 2)", "values": [{"measurement": "apparent KD of MS2 coat protein", "setting": "input ligand: FMN 200 uM", "value": 35.1, "unit": "nM"}, {"measurement": "apparent KD of MS2 coat protein", "setting": "[1]", "value": 104, "unit": "nM"}, {"measurement": "apparent KD of MS2 coat protein", "setting": "input ligand: none", "value": 39.1, "unit": "nM"}]}
{"sequence": "CCGAAGUGGCGGUCCUAUGACAUGAGGAUCACCCAUGUACUUCGCCACGAGCUUUUUGCUCGUCUUAUAGUUCUCGG [Sensor v3, turn-off variant 1 (MOD of Ator)] (puzzle: Sensor v3, turn-off variant 1)", "values": [{"measurement": "apparent KD of MS2 coat protein", "setting": "[2]", "value": 435, "unit": "nM"}, {"measurement": "apparent KD of MS2 coat protein", "setting": "[3]", "value": 32.4, "unit": "nM"}, {"measurement": "apparent KD of MS2 coat protein", "setting": "[4]", "value": 504, "unit": "nM"}]}
{"sequence": "AAGCGCGAGGCAGGAUAUGCAGAGCGGGUGGCCCGUGCAGAAAAUAACAUGAGGAUCACCCAUGUGCAGAAGGGCCGGGUGACC [Anataredra] (Eterna round: R96, puzzle: Exclusion NG 2)", "values": [{"measurement": "apparent KD of MS2 coat protein", "setting": "input ligand: FMN 200 uM", "value": 60.5, "unit": "nM"}, {"measurement": "apparent KD of MS2 coat protein", "setting": "[1]", "value": 36.1, "unit": "nM"}, {"measurement": "apparent KD of MS2 coat protein", "setting": "input ligand: none", "value": 72.9, "unit": "nM"}]}
{"sequence": "GGAUCGAGUGUGAGGAUAUGCAGGUCCUUGGAUCUGCAGAAGGCACAUGAGGAUCACCCAUGUGGAAACGGUCC [Mat - Exclusion 4 - JL Mod - D76] (puzzle: Brourd's mod of Exclusion 4)", "values": [{"measurement": "apparent KD of MS2 coat protein", "setting": "[3]", "value": 58.9, "unit": "nM"}]}
{"sequence": "CCAUACUGUAAGCUUCCCAACAUGAGGAUCACCCAUGUGGACCACGGCUUCGGUCAGCUAACCUGCUCGUCGUUGAU [Eternabot (L2) Solution 31] (Eterna round: R97, puzzle: Sensor, turn-off variant 1)", "values": [{"measurement": "apparent KD of MS2 coat protein", "setting": "input ligand: FMN 200 uM", "value": 15.2, "unit": "nM"}, {"measurement": "apparent KD of MS2 coat protein", "setting": "input ligand: none", "value": 16.9, "unit": "nM"}]}
{"sequence": "UUAAAUCAUGUAGGAUAUGCUUUGCGAAGCGAGGCAGAAGGACAUGAGGAUCACCCAUGUGCUAGCGUCCGAGUACGGAUGCAA [Mat - Exclusion NG 1 - Mod of JL - D62] (Eterna round: R96, puzzle: Exclusion NG 1)", "values": [{"measurement": "apparent KD of MS2 coat protein", "setting": "input ligand: FMN 200 uM", "value": 214, "unit": "nM"}, {"measurement": "apparent KD of MS2 coat protein", "setting": "[1]", "value": 62.6, "unit": "nM"}, {"measurement": "apparent KD of MS2 coat protein", "setting": "input ligand: none", "value": 83.3, "unit": "nM"}]}
